According to the RNAGym collection of RNA variant scans (doi:10.1073/pnas.2313332121):
Fewer inactive variants are shown than the library holds.

B1: TPR 5TU (parent)
chain: GGAUCUUCUCGAUCUAACAAAAAAGACAAAUCUGCCACAAAGCUUGAGAGCAUCUUCGGAUGCAGAGGCGGCAGCCUUCGGUGGCGCGAUAGCGCCAACGUUCUCAACUAUGACACGCAAAACGCGUGCUCCGUUGAAUGGAGUUUAUCAUG

Variants of: B1
Test: polymerase ribozyme fitness, log enrichment relative to wild type (log ratio); higher = more active; in vitro selection for triplet polymerase activity
Summary of the method: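 Input and output libraries were sequenced on Illumina after a single in vitro selection round, run in triplicate on PCR-built, transcribed mutant libraries of each subunit of a heterodimeric triplet polymerase ribozyme. Selection annealed libraries to a biotinylated primer, the partner subunit and triplets, incubated them frozen at −7 °C, then gel-excised extended constructs for streptavidin-bead capture and RT-PCR. Genotypes with ≥10 input reads and ≥1 read per output were kept. Fitness is the logarithm, taken in base 2, of genotype enrichment divided by wild-type enrichment, using inverse-variance-weighted replicate averages.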

Variant	polymerase ribozyme fitness (log ratio)
GGAUCUUCUCGAUCUAACAAAAAAGACAAAUCUGCCACAAAGCUUGAGAGCAUCUUCGGAUGCAGAGGCGGCAGCCUUCGGUGGUGCGAUAGCGCCAACGUUCUCAACUAUGACACGUAAAACGCGUGCUCCGUUGAAUGGUGUUUAUCAUG [C85U C118U A142U]	-1.02
GGAUCUUCUCGAUCUAACAAAAAAGACAAAUCUGCCACAAAGCUUGAGAGCAUCUUCGGAUGCAGAGGCGGCAGCCUUCGGUGGUGCAAUAGCGCCAACGUUCUCAACUAUGACACGCAAAACGCGUGCUCCGUUGAAUGGAGUUUAUCAGG [C85U G88A U151G]	≤ -4.2
GGAUCUUCUCGAUCUAACAAAAAAGACAAAUCUGCCACAAAGCUUGAGAGCAUCUUCGGAUGCAGAGGCGGCAGCCUUCGGUGGUGCGAUAGCGCCAACGUGCUCAACUAUGACACGCAAAACGCGUGCUCCGUUGAAUGGAGUUUAUCAUG [C85U U102G]	-3.32
GGAUCUUCUCGAUCUAACAAAAAAGACAAAUCUGCCACAAAGCUUGAGAGCAUCUUCGGAUGCAGAGGCGGCAGCCUUCGGUGGUGCGAUAACGCCAACGUUCUCAACUAUGACACGCAAAACGCGUGCUCCGUUGAAUGGAUUUUAUCAUG [C85U G92A G143U]	-4.16
GGAUCUUCUCGAUCUAACAAAAAAGACAAAUCUGCCACAAAGCUUGAGAGCAUCUUCGGAUGCAGAGGCGGCAGCCUUCGGUGGCACUAUAGCGCCAACGUUCUCAACUAUGACACUCAAAACGCGUGCUCCGUUGAAUGGAGUUUAUCAUG [G86A G88U G117U]	≤ -4.2
GGAUCUUCUCGAUCUAACAAAAAAGACAAAUCUGCCACAAAGCUUGAGAGCAUCUUCGGAUGCAGAGGCGGCAGCCUUCGGUGGUGCGAUAGCGCCAACGUUCUCAACUAUGACACGCAAAACGCGUGCUCCGUUGAAUGGACUUUAUCAUG [C85U G143C]	-1.66
GGAUCUUCUCGAUCUAACAAAAAAGACAAAUCUGCCACAAAGCUUGAGAGCAUCUUCGGAUGCAGAGGCGGCAGCCUUCGGUGGUGCGAUAGCCCCAACGUUCUCAACUAUGACACGCAAAACGCGUGCUCCGUUGAAUGGAAUUUAUCAUG [C85U G94C G143A]	-1.78
GGAUCUUCUCGAUCUAACAAAAAAGACAAAUCUGCCACAAAGCUUGAGAGCAUCUUCGGAUGCAGAGGCGGCAGCCUUCGGUGGCACGAUAGCGCCAACGUUCUCAACUAUGACACGCAAAACGCGUGCUCCGUUGAAGGGAGUUUAUCAUG [G86A U139G]	-1.36
GGAUCUUCUCGAUCUAACAAAAAAGACAAAUCUGCCACAAAGCUUGAGAGCAUCUUCGGAUGCAGAGGCGGCAGCCUUCGGUGGUGCGAUAGCGCCAACGUUCUCAACUAUGACACGCAAAACGCGUGCUCCGUUGAAUUGAGUUUAUCAUG [C85U G140U]	-2.51
GGAUCUUCUCGAUCUAACAAAAAAGACAAAUCUGCCACAAAGCUUGAGAGCAUCUUCGGAUGCAGAGGCGGCAGCCUUCGGUGGUGCGAUAGCGCCAACGUUCUCAACUAUGACACGCAAAACGCGUGCUCCGUUCAAUGGAGUUUAUCAUG [C85U G136C]	-3.29
GGAUCUUCUCGAUCUAACAAAAAAGACAAAUCUGCCACAAAGCUUGAGAGCAUCUUCGGAUGCAGAGGCGGCAGCCUUCGGUGGCACGAUAGCGCCAACGUUCUCAACUAUGACACGCAAAUCGCGUGCUCCGUUGAAUGGAGUUUAUCAUG [G86A A122U]	-1.33
GGAUCUUCUCGAUCUAACAAAAAAGACAAAUCUGCCACAAAGCUUGAGAGCAUCUUCGGAUGCAGAGGCGGCAGCCUUCGGUGGUGCGAUAGCGCCAACGUUCUCAACUAUGACACGCAAAACGCGUGCUCCGUUGAAUGGAGUUUAUAAUG [C85U C149A]	≤ -4.2
GGAUCUUCUCGAUCUAACAAAAAAGACAAAUCUGCCACAAAGCUUGAGAGCAUCUUCGGAUGCAGAGGCGGCAGCCUUCGGUGGCACGACAGCGCCAACGUCCUCAACUAUGACACGCAAAACGCGUGCUCCGUUGGAUGGAGUUUAUCAUG [G86A U90C U102C A137G]	≤ -4.2
GGAUCUUCUCGAUCUAACAAAAAAGACAAAUCUGCCACAAAGCUUGAGAGCAUCUUCGGAUGCAGAGGCGGCAGCCUUCGGUGGCACGGUAGCGCCAACGUUGUCAACUAUGACGCGCAAAACGCCUGCUCCGUUGAAUGGAGUUUAUCAUG [G86A A89G C103G A115G G126C]	≤ -4.2
GGAUCUUCUCGAUCUAACAAAAAAGACAAAUCUGCCACAAAGCUUGAGAGCAUCUUCGGAUGCAGAGGCGGCAGCCUUCGGUGGUGCGAUAGCGCCAACGUUCUCAACUAUGACACGCAAAACGCGCGCUCCGUUGUAUGGAGUUUAUCAUG [C85U U127C A137U]	≤ -4.2
GGAUCUUCUCGAUCUAACAAAAAAGACAAAUCUGCCACAAAGCUUGAGAGCAUCUUCGGAUGCAGAGGCGGCAGCCUUCGGUGGUGCGAUAGCGCCAACGUUCUCAACUAUGACACGCAAAACGCGUGCUCCGUUGAAUGGAGUUAAUCAUU [C85U U146A G152U]	-3.06
GGAUCUUCUCGAUCUAACAAAAAAGACAAAUCUGCCACAAAGCUUGAGAGCAUCUUCGGAUGCAGAGGCGGCAGCCUUCGGUGGCACGAUAGCGCCAACGUUCUCAACUAUGAUACGCAAAACGCGUGCUCCGUUGAAUGGAGUUUAUCAUG [G86A C114U]	-2.15
GGAUCUUCUCGAUCUAACAAAAAAGACAAAUCUGCCACAAAGCUUGAGAGCAUCUUCGGAUGCAGAGGCGGCAGCCUUCGGUGGCACGAUAGCGCCAACGUUCUCAACUAUGAAACGCAAAACGCGUGCUCCGUUGAAUGGAGUUUAUCAUG [G86A C114A]	-4.1
GGAUCUUCUCGAUCUAACAAAAAAGACAAAUCUGCCACAAAGCUUGAGAGCAUCUUCGGAUGCAGAGGCGGCAGCCUUCGGUGGCACGAUAGCGCCAACGUUCUGAACUAUGACACGCAAAACGCGUGCUCCGUUGAUUGGAGUUUAUCAUG [G86A C105G A138U]	≤ -4.2
